According to article PMC9143740:

Molecular target: Interleukin 13 receptor subunit alpha 2 (IL-13Rα2) (human (endogenous in patient-derived HGG cell lines)) (UniProt Q14627)
UniProt Q14627, sequence (Q14627 27-380): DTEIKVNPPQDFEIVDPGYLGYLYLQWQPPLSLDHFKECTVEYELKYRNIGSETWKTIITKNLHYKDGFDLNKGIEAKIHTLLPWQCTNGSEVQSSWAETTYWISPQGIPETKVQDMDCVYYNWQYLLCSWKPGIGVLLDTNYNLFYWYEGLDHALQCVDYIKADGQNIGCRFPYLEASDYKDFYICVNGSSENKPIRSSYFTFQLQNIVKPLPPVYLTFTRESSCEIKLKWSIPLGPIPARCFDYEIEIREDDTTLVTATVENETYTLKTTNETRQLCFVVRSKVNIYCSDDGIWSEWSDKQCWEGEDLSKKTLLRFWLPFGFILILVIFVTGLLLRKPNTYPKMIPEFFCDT

GB-13 (IL13.E13K-PE4E) was tested, and the IC50 of cell viability (CellTiter-Glo, 72 h), PED17 cells (DMG, IL-13Rα2-high) was 0.02 ng/mL.
